According to article PMC9331606 (2022):

What was measured:
[1] = molecular target: NanoLuciferase-tagged rat promyelocytic leukemia protein (rPML); assay: NanoBRET; conditions: HEK293T cells transfected 24 h; 4 h incubation with Halo ligand; detection time 5 s at 618 nm and 448 nm; parent: est. 2.8; read off a plot
[2] = molecular target: NanoLuciferase-tagged human promyelocytic leukemia protein (hPML) (UniProt P29590); assay: NanoBRET; conditions: HEK293T cells transfected 24 h; 4 h incubation with Halo ligand; detection time 5 s at 618 nm and 448 nm; parent: est. 23; read off a plot
Sequence of NanoLuciferase-tagged human promyelocytic leukemia protein (hPML) (P29590 whole entry): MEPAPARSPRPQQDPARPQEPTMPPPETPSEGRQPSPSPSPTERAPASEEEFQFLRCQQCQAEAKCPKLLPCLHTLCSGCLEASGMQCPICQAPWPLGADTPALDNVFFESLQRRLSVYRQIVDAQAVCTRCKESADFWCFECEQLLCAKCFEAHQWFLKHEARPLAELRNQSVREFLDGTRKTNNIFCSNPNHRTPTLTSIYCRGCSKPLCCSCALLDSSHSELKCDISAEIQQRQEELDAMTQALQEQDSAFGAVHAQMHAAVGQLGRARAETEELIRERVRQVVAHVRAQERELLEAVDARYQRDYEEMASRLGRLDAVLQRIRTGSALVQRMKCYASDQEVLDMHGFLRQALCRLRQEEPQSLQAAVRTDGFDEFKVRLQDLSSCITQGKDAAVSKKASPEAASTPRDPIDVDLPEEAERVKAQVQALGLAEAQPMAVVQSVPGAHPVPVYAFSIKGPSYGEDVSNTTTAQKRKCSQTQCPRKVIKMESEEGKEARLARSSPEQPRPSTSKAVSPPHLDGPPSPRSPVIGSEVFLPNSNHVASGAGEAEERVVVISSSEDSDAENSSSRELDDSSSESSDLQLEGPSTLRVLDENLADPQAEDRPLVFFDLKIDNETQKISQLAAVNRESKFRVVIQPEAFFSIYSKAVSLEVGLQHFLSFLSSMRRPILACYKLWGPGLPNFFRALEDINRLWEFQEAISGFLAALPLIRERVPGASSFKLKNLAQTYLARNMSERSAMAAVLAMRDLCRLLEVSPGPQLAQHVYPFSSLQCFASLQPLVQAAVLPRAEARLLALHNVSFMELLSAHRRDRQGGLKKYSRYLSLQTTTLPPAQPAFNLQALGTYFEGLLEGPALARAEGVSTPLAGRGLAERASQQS

Row | Substance | response [1] | response [2]
1 | Halo-tagged human cytomegalovirus immediate early 1 protein (hIE1) (from UniProt P13202) L174P | 7 mBU | 
2 | Halo-tagged human cytomegalovirus immediate early 1 protein (hIE1) (from UniProt P13202) cc172-176 |  | 24 mBU
3 | Halo-tagged human cytomegalovirus immediate early 1 protein (hIE1) (from UniProt P13202) hIE1_rH1 | 5.5 mBU | 1.6 mBU
4 | Halo-tagged human cytomegalovirus immediate early 1 protein (hIE1) (from UniProt P13202) hIE1_rH1/2 | 6.5 mBU | 3.7 mBU
5 | Halo-tagged human cytomegalovirus immediate early 1 protein (hIE1) (from UniProt P13202) hIE1_rH4 | 4 mBU | 4.1 mBU
6 | Halo-tagged human cytomegalovirus immediate early 1 protein (hIE1) (from UniProt P13202) hIE1_rH8 | 6.5 mBU | 2.2 mBU
7 | Halo-tagged human cytomegalovirus immediate early 1 protein (hIE1) (from UniProt P13202) hIE1_rH10/11 | 6.5 mBU | 2.6 mBU
